The values below come from US20070099283A1 (published 2007).

For the experiment, the target named is T1, mature recombinant proteinase K from Tritirachium album Limber (processed, natured from pro-proteinase K) (Tritirachium album Limber, UniProt P06873 106-384).
T1 construct: Made in E. coli as pro-proteinase K inclusion bodies, natured in vitro and cleaved autocatalytically; also called processed recombinant proteinase K; native proteinase K
The experiment is described as follows: chromatographic methods and SDS-PAGE of natured pro-proteinase K.

T1 sequence (P06873 106-384): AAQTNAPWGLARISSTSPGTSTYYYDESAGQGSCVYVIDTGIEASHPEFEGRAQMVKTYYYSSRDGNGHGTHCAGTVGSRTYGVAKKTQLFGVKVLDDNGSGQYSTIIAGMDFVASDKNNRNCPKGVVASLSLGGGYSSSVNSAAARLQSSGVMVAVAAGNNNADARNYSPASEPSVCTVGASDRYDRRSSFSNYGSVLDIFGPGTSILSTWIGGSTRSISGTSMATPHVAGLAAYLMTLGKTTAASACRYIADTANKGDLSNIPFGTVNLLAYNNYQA

B1: propeptide (prosequence) of proteinase K from Tritirachium album Limber (peptide)
chain: APAVEQRSEAAPLIEARGEMVANKYIVKFKEGSALSALDAAMEKISGKPDHVYKNVFSGFAATLDENMVRVLRAHPDVEYIEQDAVVTIN
On to B1, for which the binding result is “binds”.
